From WO2010106812A1 come the findings set out here.

For this assay, the target named is soluble recombinant human IL-6 receptor (human) (UniProt P08887). The assay is described as follows: Biacore T100, biotinylated SR344 immobilised via streptavidin as model of membrane-type IL-6 receptor, dissociation at pH 7.4 and pH 5.8, 37 degrees C. (In SPR one partner is held on a chip, and binding of the other changes the refractive index at the surface.)

Where a chain is given by its changes, count along the chain named.

Chain of soluble recombinant human IL-6 receptor (human) (P08887 20-344, form in doubt): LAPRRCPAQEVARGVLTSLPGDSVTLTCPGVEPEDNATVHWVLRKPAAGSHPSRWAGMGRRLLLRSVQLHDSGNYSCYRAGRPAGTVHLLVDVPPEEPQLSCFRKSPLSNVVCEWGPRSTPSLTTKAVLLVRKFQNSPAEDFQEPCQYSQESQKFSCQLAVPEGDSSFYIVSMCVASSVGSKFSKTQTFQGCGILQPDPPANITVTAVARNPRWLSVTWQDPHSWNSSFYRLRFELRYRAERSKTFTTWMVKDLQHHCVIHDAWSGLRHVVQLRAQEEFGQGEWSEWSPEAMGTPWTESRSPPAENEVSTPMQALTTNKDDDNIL

B1: Fv3-M73 (antibody, V domains shown)
VH: QVQLQESGPGLVKPSETLSLTCAVSGHSISHDHAWSWVRQPPGEGLEWIGFISYSGITNYNPTLQGRVTISRDNSKNTLYLQMNSLRAEDTAVYYCARSLARTTAMDYWGEGTLVTVSS
VL: DIQMTQSPSSLSASVGDSVTITCQASRDISSHLNWYQQKPGKAPELLIYYGSHLLSGVPSRFSGSGSGTDFTFTISSLEAEDAATYYCGQGNRLPYTFGQGTKVEIER
On to B1, for which the fold improvement of the pH dependency of the dissociation rate (pH 5.8 against pH 7.4) over TOCILIZUMAB came out at 11 times.

B2: H3pI/L73 (antibody, human IgG1, kappa, V domains shown)
VH: QVQLQESGPGLVKPSETLSLTCAVSGHSISHDHAHSWVRQPPGEGLEWIGYISYSGITNYNPSLKGRVTISRDTSKNQFSLKLSSVTAADTAAYYCARSLARTTAMDYWGEGTLVTVSS
VL: B1 VL with R27Q, D28H, L55H
For B2, the fold increase of the pH dependence of the dissociation rate (pH 5.8 against pH 7.4) over TOCILIZUMAB is 2.6 times.

B3: Fv4-M73 (antibody, V domains shown)
VH: B1 VH with T63S
VL: B1 VL with R27T
In the case of B3, the fold improvement of the pH dependency of the dissociation rate (pH 5.8 against pH 7.4) over TOCILIZUMAB came to 10 times.
